In patent US9765127:

Biological target: porcine pancreatic secretory PLA2 enzyme (sPLA2 1B) (porcine) (UniProt P00592)
Assay: cell-based or functional assay

UniProt P00592, sequence (P00592 23-146): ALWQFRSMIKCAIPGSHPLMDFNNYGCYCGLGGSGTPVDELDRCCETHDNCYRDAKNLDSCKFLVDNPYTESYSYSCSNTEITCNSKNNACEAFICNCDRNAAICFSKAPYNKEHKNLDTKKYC

% inhibition of sPLA2-1B activity (fluorescent HPLC assay, cleavage of UNIBIPY substrate): 83%
Substance: recombinant human SCGB3A2 with N-terminus ATA (from UniProt Q96PL1 19-93)
